US20110256062A1 (MEDICAL RESEARCH COUNCIL, published 2011)

How the values were obtained:
[1] = molecular target: full-length GFP-LRRK2[G2019S] mutant (human) (UniProt Q5S007); assay: SILAC mass spectrometry of GFP-binder immunoprecipitates from HEK-293 lysates; range told of the group of isoforms
[2] = molecular target: wild type full-length GFP-LRRK2 (human) (UniProt Q5S007); assay: as above
[3] = molecular target: T1, full length human FLAG-LRRK2 (wild type) (human, UniProt Q5S007 1-2527, phosphoserine at 860, 910, 935, 955, 973 and 976 (mass spectrometry)); assay: glutathione-Sepharose affinity purification of GST tagged 14-3-3 isoforms from HEK-293 cells expressing FLAG-LRRK2, anti-FLAG immunoblot
T1 construct: mature; also called full length LRRK2
T1 sequence (Q5S007 whole entry, canonical isoform): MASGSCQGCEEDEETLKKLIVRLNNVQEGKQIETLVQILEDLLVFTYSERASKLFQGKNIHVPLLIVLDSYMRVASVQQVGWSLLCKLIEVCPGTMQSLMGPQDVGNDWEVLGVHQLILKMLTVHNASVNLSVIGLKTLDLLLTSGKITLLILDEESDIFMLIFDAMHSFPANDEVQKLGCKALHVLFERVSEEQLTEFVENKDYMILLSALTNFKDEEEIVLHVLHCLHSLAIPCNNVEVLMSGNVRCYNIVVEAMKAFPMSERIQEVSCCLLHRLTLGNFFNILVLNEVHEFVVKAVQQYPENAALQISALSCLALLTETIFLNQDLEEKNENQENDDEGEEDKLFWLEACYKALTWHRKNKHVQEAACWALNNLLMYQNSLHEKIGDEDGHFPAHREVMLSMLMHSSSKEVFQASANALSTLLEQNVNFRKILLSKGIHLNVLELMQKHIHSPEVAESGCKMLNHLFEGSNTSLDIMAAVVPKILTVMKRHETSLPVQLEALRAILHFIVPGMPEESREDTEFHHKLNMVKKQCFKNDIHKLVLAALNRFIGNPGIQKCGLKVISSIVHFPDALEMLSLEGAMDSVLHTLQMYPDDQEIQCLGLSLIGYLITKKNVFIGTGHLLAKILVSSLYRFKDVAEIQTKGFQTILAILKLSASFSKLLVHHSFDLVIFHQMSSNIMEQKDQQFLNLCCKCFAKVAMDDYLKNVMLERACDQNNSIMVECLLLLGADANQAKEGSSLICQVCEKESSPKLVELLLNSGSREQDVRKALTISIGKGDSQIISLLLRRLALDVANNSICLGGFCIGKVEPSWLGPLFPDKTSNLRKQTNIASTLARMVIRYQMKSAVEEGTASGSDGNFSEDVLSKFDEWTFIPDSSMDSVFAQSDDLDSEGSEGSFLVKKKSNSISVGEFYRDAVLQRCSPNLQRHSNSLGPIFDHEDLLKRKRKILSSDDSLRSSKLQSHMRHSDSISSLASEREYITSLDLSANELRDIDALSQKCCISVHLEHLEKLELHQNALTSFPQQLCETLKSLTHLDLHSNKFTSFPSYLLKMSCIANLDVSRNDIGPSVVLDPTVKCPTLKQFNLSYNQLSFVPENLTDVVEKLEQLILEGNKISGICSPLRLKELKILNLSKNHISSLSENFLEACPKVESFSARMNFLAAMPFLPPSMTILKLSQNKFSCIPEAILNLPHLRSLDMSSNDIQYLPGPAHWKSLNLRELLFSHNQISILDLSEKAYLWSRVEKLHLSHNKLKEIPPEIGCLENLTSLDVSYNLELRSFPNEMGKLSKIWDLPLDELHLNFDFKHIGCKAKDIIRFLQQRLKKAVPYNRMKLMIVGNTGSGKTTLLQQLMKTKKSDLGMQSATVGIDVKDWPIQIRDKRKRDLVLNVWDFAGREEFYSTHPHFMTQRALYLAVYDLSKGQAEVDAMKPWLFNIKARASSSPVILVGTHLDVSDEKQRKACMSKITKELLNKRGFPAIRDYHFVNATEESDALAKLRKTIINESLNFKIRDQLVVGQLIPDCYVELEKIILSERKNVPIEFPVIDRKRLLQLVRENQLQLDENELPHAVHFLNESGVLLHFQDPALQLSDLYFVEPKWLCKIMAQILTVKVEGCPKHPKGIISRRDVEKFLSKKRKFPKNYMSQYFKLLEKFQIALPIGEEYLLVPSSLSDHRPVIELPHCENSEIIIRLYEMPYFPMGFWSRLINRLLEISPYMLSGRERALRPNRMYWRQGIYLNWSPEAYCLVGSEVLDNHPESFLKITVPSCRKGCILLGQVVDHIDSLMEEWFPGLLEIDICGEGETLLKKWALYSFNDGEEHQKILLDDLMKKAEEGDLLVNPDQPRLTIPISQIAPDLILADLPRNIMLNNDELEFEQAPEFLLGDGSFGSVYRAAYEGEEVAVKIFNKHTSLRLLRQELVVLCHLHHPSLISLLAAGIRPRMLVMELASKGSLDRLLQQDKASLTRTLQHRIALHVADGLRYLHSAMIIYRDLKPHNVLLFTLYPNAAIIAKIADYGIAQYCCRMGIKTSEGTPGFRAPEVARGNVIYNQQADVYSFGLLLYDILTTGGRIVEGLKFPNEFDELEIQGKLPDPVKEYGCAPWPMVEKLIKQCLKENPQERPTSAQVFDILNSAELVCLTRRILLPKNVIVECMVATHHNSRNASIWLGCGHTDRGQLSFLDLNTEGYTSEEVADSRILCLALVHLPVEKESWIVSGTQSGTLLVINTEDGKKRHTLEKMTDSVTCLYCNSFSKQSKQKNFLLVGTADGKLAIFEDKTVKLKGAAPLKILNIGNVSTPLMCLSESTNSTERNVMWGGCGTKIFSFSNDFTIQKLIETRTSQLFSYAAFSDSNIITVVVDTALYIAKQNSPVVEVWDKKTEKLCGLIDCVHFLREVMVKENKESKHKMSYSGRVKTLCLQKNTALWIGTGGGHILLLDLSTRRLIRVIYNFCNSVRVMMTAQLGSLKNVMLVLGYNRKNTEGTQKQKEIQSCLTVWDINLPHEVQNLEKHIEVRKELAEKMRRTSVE
Description: FIG. 2. […] A.) 5 mg of Swiss 3T3 lysate was subjected to immunoprecipitation with control IgG or anti-LRRK2 (S348C) antibody. Immunoprecipitates were resolved on 4-12% Novex SDS-polyacrylamide gel and immunoblotted with antibodies against LRRK2 (S374C), Hsp90 and pan 14-3-3. B.) 5 mg of Swiss 3T3 lysate was subjected to immunoprecipitation with anti-pan 14-3-3 antibodies and immunoprecipitates were resolved on 4-12% Novex SDS-polyacrylamide gels and immunoblotted with antibodies against pan-14-3-3 and LRRK2 (S374C). […] 36 hours post transfection cells were lysed and glutathione-Sepharose affinity purified proteins immunoblotted with anti-GST or anti-FLAG antibodies. D.) Fragments encoding the indicated domains of LRRK2 were transiently expressed in HEK-293 cells and immunoprecipitated with anti-FLAG antibodies. The immunoprecipitates were resolved on 4-12% Novex SDS-polyacrylamide gels and probed with either anti-FLAG antibodies or 14-3-3 overlay with digoxigenin labeled 14-3-3 in a far western assay. […] E.) Endogenous LRRK2 was immunoprecipitated from Swiss 3T3 cells with anti-LRRK2 (S348C) and subsequently treated with λ-phosphatase in the absence or presence of EDTA prior to immunoblot analysis with indicated antibodies or a 14-3-3 overlay assay. F.) As in E, except experiment undertaken with immunoprecipitated FLAG-LRRK2 obtained following transient transfection in HEK-293 cells.
Immunological procedures. Cell lysates (10-30 μg) were resolved by electrophoresis on SDS polyacrylamide gels or Novex 4-12% gradient gels, and electroblotted to nitrocellulose membranes. Membranes were blocked with 5% skimmed milk (w/v) in 50 mM Tris/HCl, pH 7.5, 0.15 M NaCl and 0.1% (v/v) Tween (TBST Buffer). For phospho-antibodies, primary antibody was used at a concentration of 1 μg/ml, diluted in 5% skimmed milk in TBST with the inclusion of 10 μg/ml dephosphorylated-peptide.

Chain of wild type full-length GFP-LRRK2 (human) (Q5S007 whole entry, canonical isoform): as above
Chain of full-length GFP-LRRK2[G2019S] mutant (human) (Q5S007 whole entry G2019S, canonical isoform): as the sequence (Q5S007 whole entry, canonical isoform) above, with G2019S counted along it

| Molecule | fold enrichment compared to GFP alone [1] [fold] | fold enrichment compared to GFP alone [2] [fold] | binding result [3] |
| --- | --- | --- | --- |
| endogenous 14-3-3 in 293 cells | 10 to 30 | 10 to 30 | – |
| GST tagged human 14-3-3 beta (other, One of all seven isoforms of human 14-3-3 expressed from pEBG plasmids; also called GST-14-3-3 beta; not shown: GST tag from the pEBG plasmid) MTMDKSELVQKAKLAEQAERYDDMAAAMKAVTEQGHELSNEERNLLSVAYKNVVGARRSSWRVISSIEQKTERNEKKQQMGKEYREKIEAELQDICNDVLELLDKYLIPNATQPESKVFYLKMKGDYFRYLSEVASGDNKQTTVSNSQQAYQEAFEISKKEMQPTHPIRLGLALNFSVFYYEILNSPEKACSLAKTAFDEAIAELDTLNEESYKDSTLIMQLLRDNLTLWTSENQGDEGDAGEGEN | – | – | binds |
| GST tagged human 14-3-3 epsilon (other, As for GST tagged 14-3-3 beta; also called GST-14-3-3 epsilon; not shown: GST tag from the pEBG plasmid) MDDREDLVYQAKLAEQAERYDEMVESMKKVAGMDVELTVEERNLLSVAYKNVIGARRASWRIISSIEQKEENKGGEDKLKMIREYRQMVETELKLICCDILDVLDKHLIPAANTGESKVFYYKMKGDYHRYLAEFATGNDRKEAAENSLVAYKAASDIAMTELPPTHPIRLGLALNFSVFYYEILNSPDRACRLAKAAFDDAIAELDTLSEESYKDSTLIMQLLRDNLTLWTSDMQGDGEEQNKEALQDVEDENQ | – | – | binds |
| GST tagged human 14-3-3 eta (other, As for GST tagged 14-3-3 beta; also called GST-14-3-3 eta; not shown: GST tag from the pEBG plasmid) MGDREQLLQRARLAEQAERYDDMASAMKAVTELNEPLSNEDRNLLSVAYKNVVGARRSSWRVISSIEQKTMADGNEKKLEKVKAYREKIEKELETVCNDVLSLLDKFLIKNCNDFQYESKVFYLKMKGDYYRYLAEVASGEKKNSVVEASEAAYKEAFEISKEQMQPTHPIRLGLALNFSVFYYEIQNAPEQACLLAKQAFDDAIAELDTLNEDSYKDSTLIMQLLRDNLTLWTSDQQDEEAGEGN | – | – | binds |
| GST tagged human 14-3-3 gamma (other, As for GST tagged 14-3-3 beta; also called GST-14-3-3 gamma; not shown: GST tag from the pEBG plasmid) MVDREQLVQKARLAEQAERYDDMAAAMKNVTELNEPLSNEERNLLSVAYKNVVGARRSSWRVISSIEQKTSADGNEKKIEMVRAYREKIEKELEAVCQDVLSLLDNYLIKNCSETQYESKVFYLKMKGDYYRYLAEVATGEKRATVVESSEKAYSEAHEISKEHMQPTHPIRLGLALNYSVFYYEIQNAPEQACHLAKTAFDDAIAELDTLNEDSYKDSTLIMQLLRDNLTLWTSDQQDDDGGEGNN | – | – | binds |
| GST tagged human 14-3-3 theta (other, As for GST tagged 14-3-3 beta; also called GST-14-3-3 theta; not shown: GST tag from the pEBG plasmid) MEKTELIQKAKLAEQAERYDDMATCMKAVTEQGAELSNEERNLLSVAYKNVVGGRRSAWRVISSIEQKTDTSDKKLQLIKDYREKVESELRSICTTVLELLDKYLIANATNPESKVFYLKMKGDYFRYLAEVACGDDRKQTIDNSQGAYQEAFDISKKEMQPTHPIRLGLALNFSVFYYEILNNPELACTLAKTAFDEAIAELDTLNEDSYKDSTLIMQLLRDNLTLWTSDSAGEECDAAEGAEN | – | – | binds |
| GST tagged human 14-3-3 zeta (other, As for GST tagged 14-3-3 beta; also called GST-14-3-3 zeta; not shown: GST tag from the pEBG plasmid) MDKNELVQKAKLAEQAERYDDMAACMKSVTEQGAELSNEERNLLSVAYKNVVGARRSSWRVVSSIEQKTEGAEKKQQMAREYREKIETELRDICNDVLSLLEKFLIPNASQAESKVFYLKMKGDYYRYLAEVAAGDDKKGIVDQSQQAYQEAFEISKKEMQPTHPIRLGLALNFSVFYYEILNSPEKACSLAKTAFDEAIAELDTLSEESYKDSTLIMQLLRDNLTLWTSDTQGDEAEAGEGGEN | – | – | binds |
| GST tagged human 14-3-3 sigma (other, As for GST tagged 14-3-3 beta; also called atypical sigma isoform; not shown: GST tag from the pEBG plasmid) MERASLIQKAKLAEQAERYEDMAAFMKGAVEKGEELSCEERNLLSVAYKNVVGGQRAAWRVLSSIEQKSNEEGSEEKGPEVREYREKVETELQGVCDTVLGLLDSHLIKEAGDAESRVFYLKMKGDYYRYLAEVATGDDKKRIIDSARSAYQEAMDISKKEMPPTNPIRLGLALNFSVFHYEIANSPEEAISLAKTTFDEAMADLHTLSEDSYKDSTLIMQLLRDNLTLWTADNAGEEGGEAPQEPQS | – | – | no binding |
